Consider 6 molecules from patent US20220298235A1 (AKESO BIOPHARMA, published 2022).

First the molecules themselves.
T1: human IL-23 (IL-23-His-Biotin) (human, UniProt Q9NPF7 20-189; P29460 23-328, biotin label, site not stated)
T1 construct: Akesobio lot 20161209; His-tagged and biotinylated
T1 sequence (looked up) 1: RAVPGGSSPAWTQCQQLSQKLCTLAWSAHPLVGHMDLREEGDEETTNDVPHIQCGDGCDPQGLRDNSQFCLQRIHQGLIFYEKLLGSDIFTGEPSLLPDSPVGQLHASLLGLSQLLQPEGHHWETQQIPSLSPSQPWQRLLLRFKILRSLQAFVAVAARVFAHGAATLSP
T1 sequence (looked up) 2: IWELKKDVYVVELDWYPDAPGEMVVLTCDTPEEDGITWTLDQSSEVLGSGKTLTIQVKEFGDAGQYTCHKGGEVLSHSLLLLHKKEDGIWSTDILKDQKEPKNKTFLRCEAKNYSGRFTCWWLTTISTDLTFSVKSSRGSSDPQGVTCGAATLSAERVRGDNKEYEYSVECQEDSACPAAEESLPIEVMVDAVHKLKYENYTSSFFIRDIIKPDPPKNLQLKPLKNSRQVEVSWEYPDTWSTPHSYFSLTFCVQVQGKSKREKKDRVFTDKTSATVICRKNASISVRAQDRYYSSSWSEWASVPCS

T2: Human IL12 (His Tag) (human, UniProt P29459 23-219; P29460 23-328)
T2 construct: Bought His-tagged heterodimer
T2 sequence (looked up) 1: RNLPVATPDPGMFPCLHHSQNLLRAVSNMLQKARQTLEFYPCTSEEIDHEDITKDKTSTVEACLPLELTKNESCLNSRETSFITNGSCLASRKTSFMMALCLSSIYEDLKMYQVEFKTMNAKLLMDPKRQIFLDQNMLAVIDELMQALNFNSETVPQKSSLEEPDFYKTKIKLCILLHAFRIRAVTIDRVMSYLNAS
T2 sequence (looked up) 2: T1 sequence (looked up) 2

B1: ustekinumab (antibody, V domains shown)
VH: EVQLVQSGAEVKKPGESLKISCKGSGYSFTTYWLGWVRQMPGKGLDWIGIMSPVDSDIRYSPSFQGQVTMSVDKSITTAYLQWNSLKASDTAMYYCARRRPGQGYFDFWGQGTLVTVSS
VL: DIQMTQSPSSLSASVGDRVTITCRASQGISSWLAWYQQKPEKAPKSLIYAASSLQSGVPSRFSGSGSGTDFTLTISSLQPEDFATYYCQQYNIYPYTFGQGTKLEIK
B2: H5L10 (antibody, human IgG1, kappa, V domains shown)
VH: EVQLVQSGAEVKKPGESLKISCQSSGYSFTTYWIGWVRQMPGQGLEWIGIMSPVDSDIRYNPMFRGQVTMSVDKSSSTAYLQWSSLKASDTAMYYCARRRPGQGYFDFWGQGTMVTVSS
VL: EIVLTQSPATLSASPGERATISCRASQSVGSWLAWYQQKPGQAPRSLIYAASNLQSGIPARFSGSGSGTDFTLTISSLEPEDFAVYYCQQYNIYPYTFGQGTRLEIKR
notes: human IgG1 / kappa constant regions; also called humanized antibody H5L10
B3: H5L9 (antibody, human IgG1, kappa, V domains shown)
VH: B2 VH
VL: DIQMTQSPSSLSASVGDRVTITCKASQNVGSWLAWYQQKPGKAPKSLIYSASSRQSGVPSRFSGSGSGTDFTLTISSLQPEDFATYYCQQYDIYPFTFGQGTKLEIKR
notes: human IgG1 (P01857) / kappa (P01834) constant regions; also called humanized antibody H5L9
B4: H5L14 (antibody, human IgG1, kappa, V domains shown)
VH: B2 VH
VL: B2 VL with G30S, Y96F
notes: human IgG1 / kappa constant regions; also called humanized antibody H5L14
B5: H5L12 (antibody, human IgG1, kappa, V domains shown)
VH: B2 VH
VL: B2 VL with G30S, L54R
notes: human IgG1 / kappa constant regions; also called humanized antibody H5L12
B6: H5L11 (antibody, human IgG1, kappa, V domains shown)
VH: B2 VH
VL: B2 VL with G30S, A50S
notes: human IgG1 / kappa constant regions; also called humanized antibody H5L11

Numbering of substitutions follows the chain as printed.

The target in the first assay is T1, human IL-23 (IL-23-His-Biotin). Kind of assay: FACS competition, IL-23-His-Biotin 2 µg/mL on 293T-IL-12Rβ1&IL-23R cells. The procedure:
(§1) 200 μL of 1% PBSA was added into each sample, and the mixture was centrifuged at 700×g for 5 min to discard the supernatant. According to experiment design, correspondingly diluted antibody (highest final concentration of 30 μg/mL, 3-fold dilution, 8 concentrations in total) and human IL-23 (IL-23-His-Biotin, Akesobio, 20161209) (final concentration of 2 μg/mL) were mixed at a ratio of 1:1, and a blank control was set. The mixture of antibody and human IL23 was incubated on ice for 30 min and then added to the cell precipitate at 100 μL/sample. The resulting mixture was well mixed and incubated on ice for 60 min. 200 μL of 1% PBSA was added, and the mixture was centrifuged at 700×g for 5 min to discard the supernatant, and then washed twice. FITC Steptavidin (Biolegend, Cat. No.: 405202) was diluted at a ratio of 1:500 and added to each tube at 100 μL. The mixture was well mixed and incubated on ice for 40 min in the absence of light. 200 μL of 1% PBSA was added, and the mixture was centrifuged at 700×g for 5 min to discard the supernatant, and then washed twice. 1% PBSA was added at 200 μL/tube, and the cells were resuspended and transferred to a flow cytometry tube for testing.
By EC50 is commonly meant the midpoint of the concentration-response curve. A lower EC50 goes with an effect from little substance. As to B1, a half-maximal effect (EC50) was put at 1.16 µg/mL.

Turning to B2, the midpoint of the response, the EC50, lay at 0.7 µg/mL.

As for B3, a half-maximal effect (EC50) was put at 4.25 µg/mL.

Molecule B4 returned an EC50 of 0.881 µg/mL.

B5 returned an EC50 of 0.775 µg/mL.

In turn, B6 had an EC50 of 0.864 µg/mL.

The target in a further assay is T2, Human IL12 (His Tag). The assay can be described thus: FACS competition, IL-12-His 20 nM on 293T-IL-12Rβ1&IL-23R cells; antibody 10 µg/mL. The procedure:
(§2) 200 μL of 1% PBSA was added into each sample, and the mixture was centrifuged at 700×g for 5 min to discard the supernatant. According to experiment design, correspondingly diluted antibody (highest final concentration of 30 μg/mL, 3-fold dilution, 8 concentrations in total) and human IL-12 (Sino Biological, Cat. No.: CT-050-H08H-20) (final concentration of 20 nM) were mixed at a ratio of 1:1, and a blank control was set. The mixture of antibody and human IL12 was incubated on ice for 30 min and then added to the cell precipitate at 100 μL/sample. The resulting mixture was well mixed and incubated on ice for 60 min 200 μL of 1% PBSA was added, and the mixture was centrifuged at 700×g for 5 min to discard the supernatant, and then washed twice. Alexa Fluor® 488 anti-His tag antibody (Biolegend, Cat. No.: 652509) was diluted at a ratio of 1:400 and added to each tube at 100 μL. The mixture was well mixed and incubated on ice for 40 min in the absence of light. 200 μL of 1% PBSA was added, and the mixture was centrifuged at 700×g for 5 min to discard the supernatant, and then washed twice. 1% PBSA was added at 200 μL/tube, and the cells were resuspended and transferred to a flow cytometry tube for testing.
Regarding B1, the MFI came out at 31 MFI.

In the case of B2, the MFI was determined as 34.1 MFI.

B3 yielded an MFI of 134 MFI.

For the molecule B4, the MFI came to 46.3 MFI.

The molecule B5 had an MFI of 32.4 MFI.

Regarding B6, the MFI worked out at 33.9 MFI.

A further assay concerns the target T2, Human IL12 (His Tag). Kind of assay: FACS competition, IL-12-His 20 nM on 293T-IL-12Rβ1&IL-23R cells; antibody 30 µg/mL. The procedure:
as §2
Turning to B1, the MFI is 28.7 MFI.

B2: the MFI is 31.6 MFI.

B3 registered an MFI of 117 MFI.

B4 showed an MFI of 34.9 MFI.

In turn, B5 registered an MFI of 31.8 MFI.

Molecule B6 returned an MFI of 33 MFI.

A further assay deals with T2, Human IL12 (His Tag). The assay can be described thus: FACS competition, IL-12-His 20 nM on 293T-IL-12Rβ1&IL-23R cells; antibody 0.37 µg/mL. The procedure: as §2
Turning to B1, the MFI is 95.7 MFI.

B2 gave an MFI of 87.5 MFI.

B3 yielded an MFI of 159 MFI.

Molecule B4 showed an MFI of 113 MFI.

As for B5, the MFI stood at 86.6 MFI.

On to B6, for which the MFI came out at 103 MFI.

For a further assay, the target named is T1, human IL-23 (IL-23-His-Biotin). Kind of assay: FACS competition, IL-23-His-Biotin 2 µg/mL on 293T-IL-12Rβ1&IL-23R cells; antibody 30 µg/mL. The procedure: as §1
The molecule B1 showed an MFI of 9.64 MFI.

The molecule B2 had an MFI of 11.9 MFI.

B3 displayed an MFI of 104 MFI.

For B4, the MFI came out at 14.1 MFI.

B5 yielded an MFI of 12.3 MFI.

Take B6: the MFI came out at 12.9 MFI.

A further assay shares this target. Kind of assay: FACS competition, IL-23-His-Biotin 2 µg/mL on 293T-IL-12Rβ1&IL-23R cells; antibody 0.01 µg/mL. The procedure:
as §1
Regarding B1, the MFI worked out at 219 MFI.

For the molecule B2, the MFI came out at 223 MFI.

B3: the MFI amounted to 222 MFI.

Turning to B4, the MFI is 218 MFI.

Turning to B5, the MFI was 221 MFI.

The molecule B6 came in with an MFI of 219 MFI.

The next assay has the same target. Kind of assay: FACS competition, IL-23-His-Biotin 2 µg/mL on 293T-IL-12Rβ1&IL-23R cells; antibody 0.12 µg/mL. On the procedure: as §1
For B1, the MFI was found to be 211 MFI.

Regarding B2, the MFI was determined as 221 MFI.

B3: the MFI is 217 MFI.

For B4, the MFI was 203 MFI.

B5 had an MFI of 211 MFI.

In turn, B6 registered an MFI of 219 MFI.

For another assay the target is unchanged. The assay can be described thus: FACS competition, IL-23-His-Biotin 2 µg/mL on 293T-IL-12Rβ1&IL-23R cells; antibody 1.11 µg/mL. The procedure: as §1
B1: the MFI was determined as 121 MFI.

Take B2: the MFI came to 81.6 MFI.

The molecule B3 came in with an MFI of 184 MFI.

Molecule B4 returned an MFI of 95.6 MFI.

Turning to B5, the MFI turned out to be 88.5 MFI.

Consider B6, for which the MFI amounted to 97.6 MFI.

The target is the same in a further assay. Kind of assay: FACS competition, IL-23-His-Biotin 2 µg/mL on 293T-IL-12Rβ1&IL-23R cells; antibody 3.33 µg/mL. On the procedure: as §1
Regarding B1, the MFI amounted to 13.8 MFI.

B2 yielded an MFI of 15.7 MFI.

For the molecule B3, the MFI came to 153 MFI.

In the case of B4, the MFI was determined as 23.6 MFI.

With B5, the MFI was determined as 15.8 MFI.

Regarding B6, the MFI was determined as 20.2 MFI.
